# Reference: PMC3902904, “Intrinsically disordered regions of nucleophosmin/B23 regulate its RNA binding activity through their inter- and intra-molecular association” (Nucleic Acids Research, 2013)
# B1: GST-B23.1-A (domain or fragment, human, UniProt P06748 120-188, looked up)
# chain: EEDAESEDEEEEDVKLLSISGKRSAPGGGSKVPQKKVKLAADEDDDDDDEEDDDEDDDDDDFDDEEAEE
# notes: nucleophosmin NPM1/B23, variant B23.1 (longest variant), human, amino acids 120-188 (acidic IDR); The construction of pGEX2T-B23.1-A is not described in the methods; also called GST-tagged B23-A; aIDR; source: E. coli BL21 (DE3), purified (Glutathione sepharose, MNase-treated)
# Columns and labels:
# GST-B23.1-CR (human) = assay: GST pull-down; settings: total RNA, 300 mM NaCl wash; Sucrose gradient 15-40%, 5 µg protein with 10 µg 293T total RNA (buffer not given in the material); GST pull-down 2 µg protein, 5 µg total RNA, wash 300 mM …
# GST-B23.1-CRD (human) = assay: GST pull-down; settings: total RNA, 300 mM NaCl wash; Sucrose gradient 15-40%, 5 µg protein with 10 µg 293T total RNA (buffer not given in the material); GST pull-down 2 µg protein, 5 µg total RNA, wash 300 mM …
# His-B23.1-ΔN (human) = His-B23.1-ΔN (human) (UniProt P06748); assay: cross-linking; 0.1% glutaraldehyde, 10 min, room temperature, 20 mM Hepes-NaOH pH 7.9, 50 mM NaCl; SDS-PAGE, CBB staining; increased protein concentration (3.0 and 4.5 µM; lanes 5 and 6 at 4.5 µM)
# GST-B23.1-CR1 = biological target: T1, GST-B23.1-CR1 (human, UniProt P06748 189-259); assay: native gel or EMSA; GST-B23.1-A (0.5 µg) mixed with increasing amounts (0.5, 1.0, 2.0, 4.0 µg) of the other GST-tagged fragment in 10 µl buffer H, 30 min, room temperature; 6% native PAGE in 0.5x TBE, CBB staining; settings: both partners purified
# T1 construct: nucleophosmin NPM1/B23, variant B23.1, human, amino acids 189-259 (basic IDR); limits are printed for B23.1-CR1 in the CD experiment; also called bIDR; basic IDR; source: E. coli BL21 (DE3), purified (Glutathione sepharose, MNase-treated)
# GST-B23.1-CRD = biological target: T2, GST-B23.1-CRD (human, UniProt P06748 189-294, threonine 199 replaced with aspartic acid (D) | threonine 219 replaced with …); assay: as above; settings: both partners purified
# T2 construct: nucleophosmin NPM1/B23, variant B23.1, human, B23.1-CR with threonines 199, 219, 234 and 237 replaced with aspartic acid; also called phosphomimetic mutant; source: E. coli BL21 (DE3), purified (Glutathione sepharose, MNase-treated)
# GST-B23.1-CRA = biological target: T3, GST-B23.1-CRA (human, UniProt P06748 189-294, threonine 199 replaced with alanine (A) | threonine 219 replaced with alanine …); assay: as above; settings: both partners purified
# T3 construct: nucleophosmin NPM1/B23, variant B23.1, human, B23.1-CR with threonines 199, 219, 234 and 237 replaced with alanine; source: E. coli BL21 (DE3), purified (Glutathione sepharose, MNase-treated)
# GST-B23.1-CR = biological target: T4, GST-B23.1-CR (human, UniProt P06748 189-294); assay: as above; settings: both partners purified
# T4 construct: nucleophosmin NPM1/B23, variant B23.1, human, basic IDR and CTD; amplified with the same forward primer as CR1 (which begins at 189, KAPVKK) and the T7 terminator primer; also called unphosphorylated GST-B23.1-CR; source: E. coli BL21 (DE3), purified (Glutathione sepharose, MNase-treated)
# T4 sequence (P06748 189-294): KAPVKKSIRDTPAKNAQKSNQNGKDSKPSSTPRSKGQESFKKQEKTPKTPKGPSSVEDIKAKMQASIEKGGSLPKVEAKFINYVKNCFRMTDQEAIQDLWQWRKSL
# T1 sequence (P06748 189-259): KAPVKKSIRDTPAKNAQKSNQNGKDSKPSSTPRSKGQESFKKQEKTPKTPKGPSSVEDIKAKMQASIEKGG
# T2 sequence (P06748 other isoform, or with tags, fused parts or gaps with the stated changes): as the sequence (P06748 189-294) above, with T11D, T31D, T46D, T49D counted along it
# T3 sequence (P06748 other isoform, or with tags, fused parts or gaps with the stated changes): as the sequence (P06748 189-294) above, with T11A, T31A, T46A, T49A counted along it
molecule,measurement,setting,value
18S rRNA,binding signal (% (reference)),GST-B23.1-CR (human),100
same,binding signal (% of GST-B23.1-CR),GST-B23.1-CRD (human),25
28S rRNA,binding signal (% (reference)),GST-B23.1-CR (human),100
same,binding signal (% of GST-B23.1-CR),GST-B23.1-CRD (human),35
His-B23.1-ΔN (from UniProt P06748 120-294) (domain or fragment),stoichiometry N,His-B23.1-ΔN (human),2
B1,binding result,GST-B23.1-CR1,binds
same,binding result,GST-B23.1-CRD,binds
same,binding result,GST-B23.1-CRA,binds
same,binding result,GST-B23.1-CR,binds
